Measured values as given in patent US20250270315A1 (ELPISCIENCE SUZHOU BIOPHARMA, published 2025).

What was measured:
[1] = molecular target: full length human SIRPα v1 with a small beta-gal fragment (ED) fused to its C-terminal, expressed in K562 … (human, UniProt P78324 31-504); assay: cell-based or functional assay
[2] = molecular target: T1, full length human SIRPα v1 stably expressed on CHOK1 or 293F cells (human, UniProt P78324 31-504); assay: FACS, 293F-hSIRPα v1 cells
T1 construct: whole, on cells; also called CHOK1-human SIRPα v1; CHOK1-hSIRPα v1

[3] = molecular target: T2, human SIRPα v1 ECD recombinant protein (tag not given) (human, UniProt P78324 31-373); assay: competitive ELISA, mFc-CD47 ECD on coated SIRPα v1 ECD
T2 construct: extracellular domain; also called biotin labeled soluble human SIRPα v1 ECD recombinant protein; ELISA microplate coated human SIRPα v1 ECD
Protocol: (§1) Competitive ELISA assay was used to determine whether the purified chimeric antibodies can block CD47 and SIRPα interaction. Briefly, antibody and mFc tagged human CD47 ECD recombinant protein were co-incubated with ELISA microplate coated human SIRPα v1 ECD (FIGS. 6A and 6B) or human SIRPα v2 ECD (FIGS. 7A and 7B) recombinant protein. After washing, HRP labeled anti-mouse Fc 2nd antibody (Sigma) was added and incubated at 37° C. for 1 hour. Then, 100 μl/well of TMB solution (Biotechnology) was added. After incubation for 15 minutes at room temperature, the reaction was stopped by the addition of 50 μl of 1N HCl. OD 450 nm was read. Blocking ratio was determined by blockade of human CD47 ECD recombinant protein binding to ELISA microplate coated human SIRPα ECD recombinant protein. Other than 005, all antibodies as tested can block interaction between human CD47 and different human SIRPα variants.

[4] = molecular target: T3, human SIRPβ ECD recombinant protein (6×His tagged) (human, UniProt O00241 30-371); assay: ELISA, hSIRPβ ECD
T3 construct: extracellular domain; Bought from Sino Biological; also called hSIRPβ ECD; not shown: 6×His tag
Excerpt: (§2) Binding activity of the purified chimeric antibodies against SIRPβ and SIRPBI was detected by ELISA assay using recombinant proteins of human SIRPβ ECD (FIGS. 3A and 3B), human SIRPBI ECD (FIGS. 3D and 3E) and FACS assay using CHOK 1 cells stably expressing human SIRPB (FIG. 3C).

[5] = molecular target: T4, human SIRPα v2 ECD recombinant protein (tag not given) (human); assay: competitive ELISA, mFc-CD47 ECD on coated SIRPα v2 ECD
T4 construct: extracellular domain; also called ELISA microplate coated human SIRPα v2 ECD
Protocol: as §1

[6] = molecular target: T5, human SIRPβ stably expressed on CHOK1 cells (human, UniProt O00241 30-398); assay: FACS, CHOK1-hSIRPβ cells
T5 construct: whole, on cells; also called CHOK1-human SIRPB; CHOK1-hSIRPβ
Excerpt: as §2

[7] = molecular target: T6, C57BL/6 mouse SIRPα ECD recombinant protein (6×His tagged) (C57BL/6 mouse, UniProt P97797 32-373); assay: ELISA, recombinant C57BL/6 mouse SIRPα ECD
T6 construct: extracellular domain; Bought from Biointron; not shown: 6×His tag
T6 sequence (looked up): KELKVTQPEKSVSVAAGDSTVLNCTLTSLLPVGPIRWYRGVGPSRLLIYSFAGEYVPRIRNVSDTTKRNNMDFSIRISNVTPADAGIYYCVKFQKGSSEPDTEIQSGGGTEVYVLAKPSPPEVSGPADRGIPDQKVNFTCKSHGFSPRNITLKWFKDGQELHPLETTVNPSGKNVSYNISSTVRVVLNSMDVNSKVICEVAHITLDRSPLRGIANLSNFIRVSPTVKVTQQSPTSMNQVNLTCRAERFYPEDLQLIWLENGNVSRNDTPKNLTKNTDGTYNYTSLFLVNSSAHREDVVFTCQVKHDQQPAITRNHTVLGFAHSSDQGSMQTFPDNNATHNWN
Excerpt: Species cross reactivity of purified chimeric antibodies was detected by ELISA assay using recombinant protein of C57BL/6 mouse SIRPα ECD (FIG. 5A) and FACS assay using CHOK 1 cells stably expressing cyno SIRPα (FIGS. 5B and 5C). All antibodies as tested bind to cyno SIRPα at different levels but have no species cross reactivity against C57BL/6 mouse SIRPα.

[8] = molecular target: T7, mFc tagged human SIRPα v1 ECD recombinant protein (human, UniProt P78324 31-373); assay: competitive ELISA binning, mFc-SIRPα v1 ECD; competitor hu1H9G4
T7 construct: extracellular domain; Bought from Biointron; not shown: mouse IgG Fc (mFc) tag
Protocol: (§3) Competitive ELISA assay was used for epitope binning of purified chimeric antibodies. Briefly excessive competitor antibody and mFc tagged human SIRPα v1 ECD recombinant protein were co-incubated with ELISA microplate coated antibody. After washing, HRP labeled anti-mouse Fc 2nd antibody (Sigma) was added and incubated at 37° C. for 1 hour. Then, 100 μl/well of TMB solution (Biotechnology) was added. After incubation for 15 minutes at room temperature, the reaction was stopped by the addition of 50 μl of 1N HCl. OD 450 nm was read. Competition ratio was calculated. The antibodies that can compete each other for binding to SIRPα may have related binding epitopes.

[9] = molecular target: T7, mFc tagged human SIRPα v1 ECD …; assay: competitive ELISA binning, mFc-SIRPα v1 ECD; competitor 042c
Protocol: as §3

[10] = molecular target: T1, full length human SIRPα v1 stably …; assay: FACS, CHOK1-hSIRPα v1 cells
[11] = molecular target: T7, mFc tagged human SIRPα v1 ECD …; assay: competitive ELISA binning, mFc-SIRPα v1 ECD; competitor 025c
Protocol: as §3

[12] = molecular target: T8, cyno SIRPγ ECD recombinant protein (cyno); assay: ELISA, cyno SIRPγ ECD
T8 construct: extracellular domain

[13] = molecular target: T9, human SIRPβL ECD recombinant protein (6×His tagged) (human, UniProt Q5TFQ8 30-371); assay: ELISA, hSIRPβI ECD
T9 construct: given variously as SIRPBL, SIRPBI and SIRPβI; Bought from Biointron; also called human SIRPBL ECD; human SIRPBI ECD
Excerpt: as §2

[14] = molecular target: Human SIRPα v1 (antigen of the Octet and Biacore affinity measurements) (human, UniProt P78324 31-370, limits assumed); assay: BLI (Octet), 1:1 binding model
Protocol: The purified chimeric antibodies were characterized for binding affinity against human SIRPα v1, human SIRPα v2 using Bio-Layer Interferometry technology (Octet system). The association and dissociation curves were fit with 1:1 binding model, and the Ka/Kd/KD values for each antibody were calculated.

[15] = molecular target: T10, human SIRPγ stably expressed on 293F cells (human, UniProt Q9P1W8 29-387); assay: FACS, 293F-human SIRPγ cells
T10 construct: whole, on cells
T10 sequence (Q9P1W8 29-387): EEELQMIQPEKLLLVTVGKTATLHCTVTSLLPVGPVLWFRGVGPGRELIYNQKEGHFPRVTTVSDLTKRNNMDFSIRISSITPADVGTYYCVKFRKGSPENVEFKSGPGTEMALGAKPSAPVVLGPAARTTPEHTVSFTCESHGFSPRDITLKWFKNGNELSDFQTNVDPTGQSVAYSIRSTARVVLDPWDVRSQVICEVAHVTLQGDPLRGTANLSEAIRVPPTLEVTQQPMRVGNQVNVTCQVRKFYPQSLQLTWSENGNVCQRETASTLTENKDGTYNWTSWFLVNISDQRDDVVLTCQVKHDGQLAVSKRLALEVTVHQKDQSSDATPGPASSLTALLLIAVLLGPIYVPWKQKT

T1 sequence (P78324 31-504): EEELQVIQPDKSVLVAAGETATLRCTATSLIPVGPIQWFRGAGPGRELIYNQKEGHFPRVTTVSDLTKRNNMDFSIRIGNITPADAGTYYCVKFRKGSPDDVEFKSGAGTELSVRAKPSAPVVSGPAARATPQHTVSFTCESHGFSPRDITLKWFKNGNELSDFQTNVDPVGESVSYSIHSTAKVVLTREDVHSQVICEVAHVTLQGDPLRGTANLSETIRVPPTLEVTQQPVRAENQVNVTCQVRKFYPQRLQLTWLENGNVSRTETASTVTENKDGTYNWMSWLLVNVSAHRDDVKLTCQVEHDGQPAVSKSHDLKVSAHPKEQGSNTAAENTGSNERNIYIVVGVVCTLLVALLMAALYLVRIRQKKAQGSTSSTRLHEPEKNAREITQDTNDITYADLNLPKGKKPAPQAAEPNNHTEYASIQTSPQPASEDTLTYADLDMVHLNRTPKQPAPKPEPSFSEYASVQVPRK
full length human SIRPα v1 with a small beta-gal fragment (ED) fused to its C-terminal, expressed in K562 …, sequence (P78324 31-504): as above
Human SIRPα v1 (antigen of the Octet and Biacore affinity measurements), sequence (P78324 31-370 limits assumed): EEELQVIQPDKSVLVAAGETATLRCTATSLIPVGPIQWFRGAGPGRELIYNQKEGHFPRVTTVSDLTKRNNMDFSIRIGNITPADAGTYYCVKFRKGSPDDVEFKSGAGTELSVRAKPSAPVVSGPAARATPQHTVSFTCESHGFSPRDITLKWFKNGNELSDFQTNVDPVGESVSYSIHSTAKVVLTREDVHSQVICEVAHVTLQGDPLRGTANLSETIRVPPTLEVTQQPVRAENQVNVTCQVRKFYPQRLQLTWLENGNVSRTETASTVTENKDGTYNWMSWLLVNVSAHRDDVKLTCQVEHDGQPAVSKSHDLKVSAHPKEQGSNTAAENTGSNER
T7 sequence (P78324 31-373): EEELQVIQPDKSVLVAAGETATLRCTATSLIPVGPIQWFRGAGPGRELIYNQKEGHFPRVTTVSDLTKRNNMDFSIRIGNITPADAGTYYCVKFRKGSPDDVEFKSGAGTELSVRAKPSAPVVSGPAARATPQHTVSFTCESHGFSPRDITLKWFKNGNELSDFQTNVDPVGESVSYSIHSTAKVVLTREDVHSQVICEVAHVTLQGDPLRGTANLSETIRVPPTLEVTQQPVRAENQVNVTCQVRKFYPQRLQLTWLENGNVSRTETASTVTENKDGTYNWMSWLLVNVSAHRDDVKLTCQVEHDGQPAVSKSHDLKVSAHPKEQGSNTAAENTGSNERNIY
T5 sequence (O00241 30-398): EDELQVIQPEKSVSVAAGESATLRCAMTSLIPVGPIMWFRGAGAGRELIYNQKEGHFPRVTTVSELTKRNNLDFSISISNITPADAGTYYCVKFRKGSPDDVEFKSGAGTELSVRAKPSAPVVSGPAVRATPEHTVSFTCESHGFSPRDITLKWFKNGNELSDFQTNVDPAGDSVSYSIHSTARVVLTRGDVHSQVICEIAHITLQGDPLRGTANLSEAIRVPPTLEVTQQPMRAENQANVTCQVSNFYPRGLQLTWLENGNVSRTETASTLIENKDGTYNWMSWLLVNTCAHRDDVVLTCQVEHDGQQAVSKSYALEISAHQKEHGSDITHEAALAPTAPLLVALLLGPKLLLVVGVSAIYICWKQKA
T2 sequence (P78324 31-373): as the sequence (P78324 31-373) above
T9 sequence (Q5TFQ8 30-371 limits assumed): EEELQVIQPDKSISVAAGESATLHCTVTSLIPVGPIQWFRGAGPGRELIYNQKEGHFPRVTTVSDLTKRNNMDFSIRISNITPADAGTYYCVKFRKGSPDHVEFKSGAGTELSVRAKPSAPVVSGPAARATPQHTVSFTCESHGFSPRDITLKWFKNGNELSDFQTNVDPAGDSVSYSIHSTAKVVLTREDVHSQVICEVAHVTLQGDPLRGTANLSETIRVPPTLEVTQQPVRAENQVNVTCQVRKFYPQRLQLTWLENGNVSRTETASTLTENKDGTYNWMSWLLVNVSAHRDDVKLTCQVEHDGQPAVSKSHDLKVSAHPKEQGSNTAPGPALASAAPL
T3 sequence (O00241 30-371): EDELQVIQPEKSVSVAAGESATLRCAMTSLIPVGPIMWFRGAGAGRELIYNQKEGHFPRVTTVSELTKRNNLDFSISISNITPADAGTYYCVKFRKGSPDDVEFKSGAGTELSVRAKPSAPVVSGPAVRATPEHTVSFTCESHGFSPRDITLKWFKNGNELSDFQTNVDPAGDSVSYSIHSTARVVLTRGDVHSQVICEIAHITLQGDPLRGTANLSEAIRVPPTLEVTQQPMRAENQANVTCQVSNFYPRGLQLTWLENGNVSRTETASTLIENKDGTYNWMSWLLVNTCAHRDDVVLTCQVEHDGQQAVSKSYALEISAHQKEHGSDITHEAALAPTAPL

B1: 005c (antibody, V domains shown)
VH: EVKLVESGGGLVQPGGSLSLSCAASGFTFTDYYMSWVRQPPGKALEWLGFIKNEANGYTTESSASVKGRFTISRDNSQSILYLQMNALRAEDSATYYCARYDYYGSNYNWYFDAWGTGTTVTVSS
VL: DIVMTQSQKFMSPSVGDRVSITCKASQNVRTAVAWYQQKPGQSPKVLIHLASKRHTGVPDRFTGSGSGTDFTLTISNVQSEDLADYFCLQHWIHPLTFGAGTKLELK
notes: also called chimeric antibody 005c
SHP-1 recruitment blocking, IC50 [1]: 3.85 nM
SHP-1 recruitment blocking, TOP blocking (%) [1]: 76.4%
EC50 [2]: 3.88 nM

B2: 073c (antibody, V domains shown)
VH: QIQLVQSGPELKKPGETVKISCKASGYTFTTYGMSWVKQAPGKGLKWMVWINTYSGVPTYADDFKGRFAFSLETSASTSYLQINNLKNEDTATYFCARDPHYYGSSPAWFVYWGQGTLVTVSA
VL: DIVMTQSQKFMSTTIGDRVSITCEASQIVGIAVAWYQQKPGQSPKLLIYSASNRYTGVPDRFTGSGSGTDFTLTISNMQSEDLANYFCQQYSAYPFTFGSGTKLEVK
notes: also called chimeric antibody 073c
IC50 [3]: 2.74 nM
TOP blocking (%) [3]: 95.1%
EC50 [4]: 2.14 nM
TOP OD450 [4]: 3.07 OD450
IC50 [5]: 4.92 nM
TOP blocking (%) [5]: 82.8%
EC50 [6]: 22.9 nM
TOP MFI [6]: 2630 MFI
SHP-1 recruitment blocking, IC50 [1]: 5.66 nM
SHP-1 recruitment blocking, TOP blocking (%) [1]: 51.2%
binding result [7]: no binding
% Competition [8]: 37.7%
% Competition [9]: 93.6%
EC50 [10]: 1.5 nM
TOP MFI [10]: 67800 MFI
% Competition [11]: 9.1%
EC50 [12]: 45.5 nM
TOP OD450 [12]: 0.92 OD450
EC50 [13]: 0.27 nM
TOP OD450 [13]: 2.64 OD450
Kd [14]: 6.07 nM
koff [14]: 0.00303 s⁻¹
kon [14]: 499000 M⁻¹ s⁻¹
EC50 [15]: 12.6 nM
TOP MFI [15]: 728 MFI
